# Data as given in patent publication US20140037642A1 (Amgen, published 2014).
# B1: L51H51 phage-displayed Fab (Fab, V domains shown)
# VH: QVQLVQSGAEVKKPGSSVKVSCKASGGTFSSYAISWVRQAPGQGLEWMGIINPSGGSTSYAQKFQGRVTITRDTSASTAYMELSSLRSEDTAVYYCARDRWRYDAFDIWGQGTMVTVSS
# VL: NFMLTQPHSVSESPGKTVTISCTGSGGNIASNYVQWYQQRPGRAPTTVIYEDNRRPSGVPDRFSGSIDSSSNSASLTISGLKTEDEADYYCQSYDPYNRVFGGGTKLTVL
# B2: L5H5 phage-displayed Fab (Fab, V domains shown)
# VH: QLQLQESGPGLVKPSQTLSLTCTVSGGSISSSNWWSWVRQPPGKGLEWIGEIYHSGSTNYNPSLKSRVTISVDKSKNQFSLKLSSVTAADTAVYYCARYSSSRNDAFDIWGQGTMVTVSS
# VL: not shown
# B3: L4H4 phage-displayed Fab (Fab, V domains shown)
# VH: QVQLQQWGAGLLKPSETLSLTCAVSGGSFSGYYWSWIRQPPGKGLEWIGEINHSGSTNYNRSLKSRVTISVDTSKNQFSLKLSSVTAADTAVYYCARLSYGSGVDYWGQGTLVTVSS
# VL: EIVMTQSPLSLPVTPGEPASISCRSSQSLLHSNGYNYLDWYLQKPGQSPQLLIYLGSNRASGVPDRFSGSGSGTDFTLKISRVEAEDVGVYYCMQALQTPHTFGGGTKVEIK
# B4: L12H12 phage-displayed Fab (Fab, V domains shown)
# VH: EVQLVESGGGLVQPGGSLRLSCAASGFTFSSYAMSWVRQAPGKGLEWVSAISGSGGSTYYADSVKGRFTISRDNSKNTLYLQMNSLSADDTAVYFCASGGWYGDYFDYWGQGTLVTVSS
# VL: NFMLTQPHSVSESPGKTVTISCTRSSGSIASNYVQWYQQRPGSSPTTVIYEDNQRPSGVPDRFSGSIDSSSNSASLTISGLKTEDEADYYCQSYDSSNQRVFGGGTKLTVL
# B5: L52H52 phage-displayed Fab (Fab, V domains shown)
# VH: EVQLVESGPGLVKPSGTLSLTCAVSGGSISSSNWWSWVRQPPGKGLEWIGEIYHSGSTNYNPSLKSRVTISVDKSKNQFSLKLSSVTAADTAVYYCAREKSGMDVWGQGTTVTVSS
# VL: EIVMTQSPLSLPVTPGEPASISCRSSQSLLHTNGYDYLDWYLQKPGQSPQLLIYLGSTRASGVPDRFSGSGSGTDFTLKISRVEAEDVGVYYCMQAFQTPLTFGGGTKMEIK
# B6: L50H50 phage-displayed Fab (Fab, V domains shown)
# VH: QVQLQESGPGLVKPSETLSLTCTVSGGSIGNYDWSWIRQPPGKGLEWIGTIYSSGSTYYSPSLKSRLTISVDKSKNRFSLKLSSVTAADTAVYYCARARGYSSPFDPWGQGTLVTVSS
# VL: ETTLTQSPGTLSLSPGERATLSCRASQTISSSHLAWYQQKPGQSPRLLIYGAGYRATGIPDRFSGSGSGTDFTLTISRLEPEDFAVYYCQHYGSSLRTFGQGTKVEIK
# B7: L9H9 phage-displayed Fab (Fab, V domains shown)
# VH: EVQLVESGPGLVKPSGTLSLTCAVSGGSISSSNWWSWVRQPPGKGLEWIGYIYYSGSTYYNPSLKSRVTMSVDTSKNQFSLKLSSVTAADTAVYYCARWSYLDAFDIWGQGTMVTVSS
# VL: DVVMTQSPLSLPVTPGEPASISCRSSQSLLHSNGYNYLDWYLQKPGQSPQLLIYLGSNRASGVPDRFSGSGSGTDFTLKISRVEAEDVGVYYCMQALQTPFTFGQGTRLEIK
# B8: L8H8 phage-displayed Fab (Fab, V domains shown)
# VH: QVQLQQWGPGLVKPSGTLSLTCAVSGGSISSSNWWSWVRQPPGKGLEWIGEIYHSGSTNYNPSLESRVTISVDKSKNQFSLKLSSVTAADTAVYYCARDRYYGMDVWGQGTTVTVSS
# VL: not shown
# B9: L11H11 phage-displayed Fab (Fab, V domains shown)
# VH: QLQLQESGPGLVKPSGTLSLTCAVSGGSISSSNWWSWVRQPPGKGLEWIGEIYHSGSTNYNPSLKSRVTISVDKSKNQSSLKLSSVTAADTAVYYCARANRDDAFDIWGQGTMVTVSS
# VL: EIVLTQSPLSLPVTPGEPASISCRSSQSLLHSNGYNYLNWYLQKPGQSPQLLIYLGSNRASGVPDRFSASGSGTDFTLKISRVEAEDVGVYYCMQALQTPITFGQGTRLEIK
# Target: T1, hu IGF-1R(ECD)-C3-muIgG1Fc (human; mouse, Glycosylated. 60% of the preparation was cleaved between the alpha and beta chains (RKRR, mature positions 708-711), which stay disulfide-linked; 40% was unprocessed. Dimer through the …)
# T1 construct: 60% of the product was processed into α and β chains, 40% unprocessed; also called IGF-1R(ECD)-C3-muFc; IGF-1R-C3-muFc
# Assay: phage Fab ELISA, plate coated with IGF-1R-C3-mFc at 5 µg/ml
# Method: (§1) In 96-well 2-ml deep-well blocks, 480 μl/well 2xYT-CG broth was inoculated with 20 μl of overnight cultures of the individual clones, then incubated at 37° C., 300 rpm for 3 hours. To each well, 50 μl of 1:3 diluted M13KO7 helper phage were added to infect the cells. The block was incubated at 37° C. without shaking for 30 minutes, and then shaken gently for another 30 minutes at 150 rpm. The block was centrifuged at 3600 rpm for 20 minutes to pellet the infected cells. The cell pellet in each well was suspended into 480 μl of 2xYT-CK (2xYT broth containing 100 μg/ml carbenicillin and 40 μg/ml kanamycin), and incubated at 30° C. overnight for about 20 hours. The cell debris was separated by centrifugation at 3600 rpm for 20 minutes. The rescued phage supernatant was used in the phage ELISA to check for IGF-1R-specific, INSR-cross reactive, or mouse Fc binding of individual clones.
# (§2) The coated plates were washed 3× with 300 μl/well of PBS. The washed plates were blocked with 300 μl/well 2% MPBS at room temperature for one hour. Meanwhile, rescued phages of individual clones were pre-blocked by mixing 170 μl of rescued phage with 170 μl of 4% MPBS. The blocked plates were washed 5× with 300 μl/well TBST (TBS: 10 mM Tris-HCl, pH 7.5, 1 mM EDTA, 150 mM NaCl; Tween-20. 0.1%). 100 μl/well of pre-blocked phage dilutions were distributed to each set of coated plate, which were incubated at room temperature on a rocker for 90 minutes. The plates were washed 5× with 300 μl/well TBST. 100 μl/well of anti-M13-HRP in 2% MPBS (1:3000 dilution, catalog number 27-9421-01, Amersham Pharmacia Biotech) were distributed, and plates were incubated at room temperature on rocker for one hour. The plates were washed 5× with 300 μl/well TBST. 100 μl/well of the substrate 1-Step™ ABTS (Pierce Biotechnology, Rockford, Ill., catalog number 37615) were added. Plates were incubated for one hour. OD₄₀₅ was measured for signal detection.
row,Binder,binding result
1,B1,binds
2,B2,binds
3,B3,binds
4,B4,binds
5,B5,binds
6,B6,binds
7,B7,binds
8,B8,binds
9,B9,binds

# Target: T2, hu INSR(ECD)-muIgG1Fc (human; mouse, Glycosylated. 87% of the preparation was cleaved between the alpha and beta chains (RKRR site), which stay disulfide-linked. Dimer through the receptor and the murine Fc.)
# T2 construct: 87% processed into α and β chains; also called INSR(ECD)-muFc; INSR-mFc
# Assay: phage Fab ELISA, plate coated with INSR-mFc at 5 µg/ml
# Method: as §1, §2
row,Binder,binding result
1,B1,no binding
2,B2,no binding
3,B3,no binding
4,B4,no binding
5,B5,no binding
6,B6,no binding
7,B7,no binding
8,B8,no binding
9,B9,no binding
